From FireProtDB (doi:10.1021/bi982158q) come the findings set out here.

For this data set the following is noted: Bos taurus, pH 7, K2HPO4 5 mM, transition: 2, reversible: Yes, whole UniProt chain shown; for Tm: Thermal.

B1: Cytochrome b5 wild type, P00171 (protein)
chain: MAEESSKAVKYYTLEEIQKHNNSKSTWLILHYKVYDLTKFLEEHPGGEEVLREQAGGDATENFEDVGHSTDARELSKTFIIGELHPDDRSKITKPSESIITTIDSNPSWWTNWLIPAISALFVALIYHLYTSEN
Usually Tm stands for the temperature at the midpoint of the melting transition. Consider B1, for which, under “25 °C, Urea, Absorbance”, the denaturant m value was 1.26 kcal/mol/M, the “denaturant midpoint (higher = more stable)” value amounted to 6.9 M and the unfolding free energy turned out to be 8.7 kcal/mol. For the same protein, the Tm (Absorbance) worked out at 75.2 °C. The Tm (Fluorescence) is 50.1 °C.
